Test results as given in patent US20240116985A1 (published 2024).
Starred links: 1 amine or outer side, 2 acyl side, 3 side chain; linkers in the order of their positions; H or OH if unused. Positions of bridges follow the written chain, without caps; N, C: chain ends. Non-standard residues stand in square brackets, D forms with d. Primed or numbered codes have the meaning given here. PyrS2″ = (S)-3-amino-1-((pent-4-en-1-yloxy)carbonyl)pyrrolidine-3-carboxylic acid (stapling residue), C=CCCCOC(=O)N1CC[C@@](N[*:1])(C(=O)[*:2])C1; B5(4) = 2,2-bis(4-pentenyl)glycine = 2-amino-2-(pent-4-en-1-yl)hept-6-enoic acid (stitching residue), C=CCCCC(CCCC=C)(N[*:1])C(=O)[*:2]; TfeGA = (S)-2-amino-3-((carboxymethyl)(2,2,2-trifluoroethyl)amino)propanoic acid, O=C([C@H](CN(CC(=O)[*:3])CC(F)(F)F)N[*:1])[*:2]; B5(3) = 2,2-bis(4-pentenyl)glycine (stitching residue), C=CCCCC(CCCC=C)(N[*:1])C(=O)[*:2]; Asp(OEt)″ = aspartic acid side-chain ethyl ester, CCOC(=O)C[C@H](N[*:1])C(=O)[*:2]; Asp(OMe) = [Me]AspE, Asp side-chain methyl ester, COC(=O)C[C@H](N[*:1])C(=O)[*:2]; Phe(3-COOH) = N[C@@H](Cc1cccc(C(=O)O)c1)C(=O)O; Phe(3-OMe) = COc1cccc(C[C@H](N)C(=O)O)c1; Bta = N[C@@H](Cc1csc2ccccc12)C(=O)O; Lys(iPr) = CC(C)NCCCC[C@H](N)C(=O)O; αAllylPro = C=CC[C@@]1(C(=O)O)CCCN1; tBuAla = CC(C)(C)C[C@H](N)C(=O)O; 3Thi = N[C@@H](Cc1ccsc1)C(=O)O; Cha = N[C@@H](CC1CCCCC1)C(=O)O; S8 = C=CCCCCCC[C@](C)(N)C(=O)O; hSer = N[C@@H](CCO)C(=O)O; Aib = CC(C)(N)C(=O)O

T1: B-cat-Halo (UniProt P35222 1-781)
T1 sequence (looked up): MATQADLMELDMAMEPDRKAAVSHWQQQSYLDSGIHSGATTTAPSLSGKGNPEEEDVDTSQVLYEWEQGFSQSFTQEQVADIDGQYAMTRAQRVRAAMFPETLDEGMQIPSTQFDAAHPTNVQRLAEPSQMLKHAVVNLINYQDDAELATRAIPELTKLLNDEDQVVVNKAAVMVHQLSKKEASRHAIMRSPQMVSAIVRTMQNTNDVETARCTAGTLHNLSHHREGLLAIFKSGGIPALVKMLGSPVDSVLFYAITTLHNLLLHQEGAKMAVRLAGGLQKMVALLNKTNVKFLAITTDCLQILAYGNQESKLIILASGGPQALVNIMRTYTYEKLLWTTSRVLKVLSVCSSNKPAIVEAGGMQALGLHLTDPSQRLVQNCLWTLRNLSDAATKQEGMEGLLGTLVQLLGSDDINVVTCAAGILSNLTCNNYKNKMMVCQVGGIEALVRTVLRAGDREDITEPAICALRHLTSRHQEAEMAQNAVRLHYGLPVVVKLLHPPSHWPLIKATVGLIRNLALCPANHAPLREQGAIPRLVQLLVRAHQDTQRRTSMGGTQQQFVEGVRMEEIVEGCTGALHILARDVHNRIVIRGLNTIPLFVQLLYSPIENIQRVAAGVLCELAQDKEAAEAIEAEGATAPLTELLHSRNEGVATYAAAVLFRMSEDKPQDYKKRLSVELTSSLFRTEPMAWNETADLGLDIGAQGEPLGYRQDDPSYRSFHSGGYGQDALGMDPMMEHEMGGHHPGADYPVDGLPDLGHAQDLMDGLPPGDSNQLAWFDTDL

T2: B-cat-Halo (NanoBRET construct expressed in HEK293 cells) (UniProt P35222 1-781, HaloTag NanoBRET 618 Ligand bound in the assay)
T2 sequence (looked up): T1 sequence (looked up)

T3: B-cat-Halo (beta-catenin HaloTag fusion expressed in HEK293 cells) (UniProt P35222 1-781, HaloTag NanoBRET 618 Ligand bound to the HaloTag)
T3 sequence (looked up): T1 sequence (looked up)

T4: full-length beta-Catenin (Uniprot ID P35222) (Homo sapiens (Human), UniProt P35222 1-781)
T4 construct: also called bCat; B-Catenin
T4 sequence: T1 sequence (looked up)

B1: I-751 (peptide)
peptide: Ac-[αAllylPro]DL[B5(4)]DEAAFN[S8]F[Bta]S-NH2
modifications: staple 1-4, 4-11; also: olefin E/Z not assigned, later-eluting staple isomer
notes: Stapled peptide; shares its description with I-750, later eluting HPLC peak (staple isomer composition); also called Ac-PL3-Asp-Leu-B5-Asp-Glu-Ala-Ala-Phe-Asn-S8-Phe-BztA-Ser-NH2
B2: I-752 (peptide)
peptide: Ac-[αAllylPro]DL[B5(4)]DEAAFN[S8]F[Bta]N-NH2
modifications: staple 1-4, 4-11; also: olefin E/Z not assigned, earlier-eluting staple isomer
notes: Stapled peptide; also called Ac-PL3-Asp-Leu-B5-Asp-Glu-Ala-Ala-Phe-Asn-S8-Phe-BztA-Asn-NH2
B3: I-753 (peptide)
peptide: Ac-[αAllylPro]DL[B5(4)]DEAAFN[S8]F[Bta]N-NH2
modifications: staple 1-4, 4-11; also: olefin E/Z not assigned, later-eluting staple isomer
notes: as for B2

What follows are binders tested against T1, B-cat-Halo (assay: cell-based or functional assay).

NanoBRET Abs IC50 [µM]	Binder
> 20	Ac-[αAllylPro]D[Cha][B5(3)]DDAA[Phe(3-OMe)]S[PyrS2″]F[Bta]Q-NH2 (staple 1-4, 4-11) [I-1124]

Each binder was assayed against T2, B-cat-Halo (NanoBRET construct …) (assay: cell-based or functional assay).

NanoBRET Abs IC50 [µM]	Binder
7.1	B1
9.9	B2
10	B3

The binders below were run against T3, B-cat-Halo (beta-catenin HaloTag fusion …) (assay: cell-based or functional assay).

NanoBRET Abs IC50 [µM]	Binder
14.4	Ac-[αAllylPro]D[tBuAla][B5(3)]N[Phe(3-COOH)]AAFT[PyrS2″][3Thi][Bta]Q-NH2 (staple 1-4, 4-11) [I-2336]
> 20	Ac-[αAllylPro]D[tBuAla][B5(3)]NT[Aib]AFN[PyrS2″][3Thi][Bta]Q-NH2 (staple 1-4, 4-11) [I-2338]
> 20	Ac-[αAllylPro]N[Cha][B5(3)]D[Phe(3-COOH)][Lys(iPr)]AFL[PyrS2″]F[Bta]Q-NH2 (staple 1-4, 4-11) [I-2340]
> 20	Ac-[αAllylPro]N[Cha][B5(3)]D[TfeGA][Lys(iPr)]AFL[PyrS2″]F[Bta]Q-NH2 (staple 1-4, 4-11) [I-2341]
> 20	Ac-[αAllylPro]N[Cha][B5(3)]DQ[Lys(iPr)]AFL[PyrS2″]F[Bta]K-NH2 (staple 1-4, 4-11) [I-2350]
> 20	Ac-[αAllylPro]N[Cha][B5(3)]DQ[hSer]AFL[PyrS2″]F[Bta]Q-NH2 (staple 1-4, 4-11; also: earlier eluting isomer, configuration not given here) [I-2354]
> 20	Ac-[αAllylPro]D[tBuAla][B5(3)][Asp(OEt)″]DAAFL[PyrS2″][3Thi][Bta]Q-NH2 (staple 1-4, 4-11) [I-2357]
52.2	Ac-[αAllylPro]D[tBuAla][B5(3)]D[Asp(OEt)″]AAFL[PyrS2″][3Thi][Bta]Q-NH2 (staple 1-4, 4-11) [I-2358]
> 20	Ac-[αAllylPro][Asp(OMe)][tBuAla][B5(3)]DDAAFL[PyrS2″][3Thi][Bta]Q-NH2 (staple 1-4, 4-11) [I-2359]

These binders were tested against T4, full-length beta-Catenin (Uniprot ID …) (assay: fluorescence polarization competition; full-length beta-catenin with 5FAM-TCF4(10-53) probe as competitor).
Summary of the method: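 Incubate 60 minutes at 20° C. away from light, then read polarization in duplicate. Fit to 1:1 binding with hill slope.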

IC50 [µM]	Binder
0.029	B1
0.016	B2
0.014	B3
